One test has as its target hAM1R (human, UniProt Q16602). The test is described as follows: cell-based or functional assay.
The target in another test is T1, hAMY3R (human, UniProt P30988).
T1 sequence 1: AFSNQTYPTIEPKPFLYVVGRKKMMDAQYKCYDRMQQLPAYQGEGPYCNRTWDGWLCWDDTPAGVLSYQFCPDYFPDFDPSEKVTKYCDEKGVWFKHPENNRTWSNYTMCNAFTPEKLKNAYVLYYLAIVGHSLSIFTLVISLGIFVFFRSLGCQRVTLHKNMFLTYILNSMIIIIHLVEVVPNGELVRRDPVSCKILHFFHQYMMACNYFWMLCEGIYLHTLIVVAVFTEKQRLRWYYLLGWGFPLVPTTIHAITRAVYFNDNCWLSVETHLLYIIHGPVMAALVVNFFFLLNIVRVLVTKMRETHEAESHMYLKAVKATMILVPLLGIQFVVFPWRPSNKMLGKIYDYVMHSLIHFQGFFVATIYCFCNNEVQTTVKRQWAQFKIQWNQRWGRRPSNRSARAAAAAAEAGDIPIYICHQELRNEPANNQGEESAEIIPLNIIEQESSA
T1 sequence 2: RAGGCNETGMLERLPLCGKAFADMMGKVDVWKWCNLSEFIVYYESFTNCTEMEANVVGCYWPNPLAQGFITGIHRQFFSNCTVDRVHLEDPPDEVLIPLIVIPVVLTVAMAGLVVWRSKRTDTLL
The test is described as follows: cell-based or functional assay.

Numbered stars: 1 amine (or outer) side, 2 acyl side, 3 side chain; on linkers, the order of the positions; unused ones are H or OH. Bridge positions count the residues as written; N and C are the ends. Square brackets hold non-standard residues; d marks the D form. * marks the point of attachment. C20 diacid = O=C(O)CCCCCCCCCCCCCCCCCCC(=O)*; γGlu = O=C(O)[C@H](CCC(=O)[*:2])N[*:1]; Hyp = O=C(O)[C@@H]1C[C@@H](O)CN1 Bounds are passed on as bounds.

On to {C20 diacid-γGlu}-KCNFATCTVQRLAHQIYQFTDKDKDNVAPRTEVGSNGY-NH2 (disulfide 2-7 (inferred); ends not checked) [SEQ ID NO: 370], for which the “hAM1R EC50 (cAMP)” value with hAM1R stood at 10.3 nM. Besides, the “hAMY3R EC50 (cAMP)” value in the test with hAMY3R is 0.017 nM.
As to GCRFGTCTVQRLAHFLYQFTDKDKDNVAPRTKIGSNGY [SEQ ID NO: 376], in the test with hAM1R, the “hAM1R EC50 (cAMP)” value came out at 12 nM. Also, the “hAMY3R EC50 (cAMP)” value with hAMY3R was 0.022 nM.
Regarding {C20 diacid-γGlu}-RCNTATCTVQRLAHQIYQFTDKDKDNVAPPTNVGSNG[Hyp]-NH2 (disulfide 2-7 (inferred); ends not checked) [SEQ ID NO: 39], the “hAM1R EC50 (cAMP)” value with hAM1R was above 5000 nM. In the test with hAMY3R, the “hAMY3R EC50 (cAMP)” value was found to be 0.01 nM.
Consider {C20 diacid-γGlu}-GCRFATCTVQRLAHQIYQFTDKDKDNVAPRTKVGPQGY-NH2 (disulfide 2-7 (inferred); ends not checked) [SEQ ID NO: 380], for which the “hAM1R EC50 (cAMP)” value with hAM1R came to 0.162 nM. The “hAMY3R EC50 (cAMP)” value with hAMY3R was determined as 0.031 nM.
For {C20 diacid-γGlu}-GCRFGTCTVQRLANQIYQFTDKDKDNVAPRTNVGPQGY-NH2 (disulfide 2-7 (inferred); ends not checked) [SEQ ID NO: 372], in the test with hAM1R, the “hAM1R EC50 (cAMP)” value was 3.94 nM. Besides, in the test with hAMY3R, the “hAMY3R EC50 (cAMP)” value came out at 0.02 nM.
Consider GCRFGTCTVQRLAHQIYQFTDKDKDNVAPRTNVGPQGY [SEQ ID NO: 362], for which the “hAM1R EC50 (cAMP)” value with hAM1R was 18.1 nM. In the test with hAMY3R, the “hAMY3R EC50 (cAMP)” value stood at 0.007 nM.
In the same order, the values of GCRFGTCTVQRLAHQIYQFTDKDKDNVAPRSNVGPQGY [SEQ ID NO: 374] are 12 nM and 0.021 nM.
Take GCRFGTCTVQRLAHFLYQFTDKDKDNVAPRTKVGPQGY [SEQ ID NO: 369]: the “hAM1R EC50 (cAMP)” value in the test with hAM1R came to 2.48 nM. For the same molecule, the “hAMY3R EC50 (cAMP)” value in the test with hAMY3R was determined as 0.017 nM.
On to GCRFGTCTVQRLAHQIYQFTDKDKDNVAPRSNIGPQGY [SEQ ID NO: 382], for which, in the test with hAM1R, the “hAM1R EC50 (cAMP)” value is 5.12 nM. Besides, in the test with hAMY3R, the “hAMY3R EC50 (cAMP)” value was 0.034 nM.
Taken in the same sequence, the figures for GCRFGTCTVQRLAHQIYQFTDKDKDNVAPRTKISPNGY [SEQ ID NO: 371] were 3.03 nM and 0.019 nM.
Regarding GCRFGTCTVQRLAHFLYQFTDKDKDNVAPRTKIGPQGY [SEQ ID NO: 365], the “hAM1R EC50 (cAMP)” value in the test with hAM1R is 1.21 nM. Besides, in the test with hAMY3R, the “hAMY3R EC50 (cAMP)” value was 0.012 nM.
In the same order, the values of GCRFGTCTVQRLAHQIYQFTDKDKDNVAPRTKVSPNGY [SEQ ID NO: 385] are 7 nM and 0.036 nM.
Regarding GCRFGTCTVQRLAHQIYQFTDKDKDNVAPRTKIGPNGY [SEQ ID NO: 367], in the test with hAM1R, the “hAM1R EC50 (cAMP)” value was determined as 0.563 nM. The “hAMY3R EC50 (cAMP)” value with hAMY3R was determined as 0.014 nM.
In the same order, the values of GCRFGTCTVQRLAHQIYQFTDKDKDNVAPRSNISPNGY [SEQ ID NO: 383] are 5.93 nM and 0.034 nM.
Take GCRFGTCTVQRLAHQIYQFTDKDKDNVAPRSKVSPNGY [SEQ ID NO: 384]: the “hAM1R EC50 (cAMP)” value with hAM1R was 1.09 nM. Also, the “hAMY3R EC50 (cAMP)” value with hAMY3R was 0.036 nM.
Taken in the same sequence, the figures for GCRFGTCTVQRLAHFLYQFTDKDKDNVAPRTNIGPQGY [SEQ ID NO: 364] were 13.6 nM and 0.01 nM.
On to GCRFGTCTVQRLAHQIYQFTDKDKDNVAPRSKIGPQGY [SEQ ID NO: 387], for which the “hAM1R EC50 (cAMP)” value in the test with hAM1R amounted to 0.992 nM. For the same molecule, in the test with hAMY3R, the “hAMY3R EC50 (cAMP)” value amounted to 0.04 nM.
Regarding GCRFGTCTVQRLAHQIYQFTDKDKDNVAPRTNIGPQGY [SEQ ID NO: 379], the “hAM1R EC50 (cAMP)” value with hAM1R stood at 0.458 nM. The “hAMY3R EC50 (cAMP)” value in the test with hAMY3R was 0.029 nM.
Consider GCRFGTCTVQRLAHQIYQFTDKDKDNVAPRTKIGPQGY [SEQ ID NO: 391], for which the “hAM1R EC50 (cAMP)” value in the test with hAM1R came out at 0.665 nM. Also, the “hAMY3R EC50 (cAMP)” value in the test with hAMY3R came out at 0.068 nM.
As to GCRFGTCTVQRLAHQIYQFTDKDKDNVAPRTNISPNGY [SEQ ID NO: 366], the “hAM1R EC50 (cAMP)” value with hAM1R was 12.1 nM. Moreover, the “hAMY3R EC50 (cAMP)” value in the test with hAMY3R turned out to be 0.013 nM.
In the same order, the values of GCRFGTCTVQRLAHQIYQFTDKDKDNVAPRSKVGPQGY [SEQ ID NO: 375] are 0.403 nM and 0.022 nM.
Consider GCRFGTCTVQRLAHQIYQFTDKDKDNVAPRSNVGPNGY [SEQ ID NO: 373], for which, in the test with hAM1R, the “hAM1R EC50 (cAMP)” value came out at 7.71 nM. Also, the “hAMY3R EC50 (cAMP)” value with hAMY3R worked out at 0.02 nM.
As for GCRFGTCTVQRLAHQIYQFTDKDKDNVAPRTNIGPNGY [SEQ ID NO: 381], in the test with hAM1R, the “hAM1R EC50 (cAMP)” value was 7.61 nM. Besides, the “hAMY3R EC50 (cAMP)” value with hAMY3R came out at 0.032 nM.
For GCRFGTCTVQRLAHQIYQFTDKDKDNVAPRTKVGPQGY [SEQ ID NO: 368], the “hAM1R EC50 (cAMP)” value with hAM1R was determined as 0.997 nM. Further, the “hAMY3R EC50 (cAMP)” value with hAMY3R was determined as 0.015 nM.
For the molecule GCRFATCTVQRLAHFLYQFTDKDKDNVAPRTKVGPQGY [SEQ ID NO: 377], in the test with hAM1R, the “hAM1R EC50 (cAMP)” value came to 0.243 nM. Moreover, the “hAMY3R EC50 (cAMP)” value with hAMY3R stood at 0.024 nM.
Regarding {C20 diacid-γGlu}-KCNFATCATQRLANFLVQFTDKDKDNVAPRSKIGPQGY-NH2 (disulfide 2-7 (inferred); ends not checked) [SEQ ID NO: 389], the “hAM1R EC50 (cAMP)” value with hAM1R came to 1.04 nM. Also, in the test with hAMY3R, the “hAMY3R EC50 (cAMP)” value was determined as 0.045 nM.
Take {C20 diacid-γGlu}-GCRFGTCTVQRLAHFLYQFTDKDKDNVAPRTNIGPQGY-NH2 (disulfide 2-7 (inferred); ends not checked) [SEQ ID NO: 388]: the “hAM1R EC50 (cAMP)” value with hAM1R was 4.01 nM. Besides, the “hAMY3R EC50 (cAMP)” value with hAMY3R is 0.043 nM.
As for {C20 diacid-γGlu}-GCRFGTCTVQRLANFLYQFTDKDKDNVAPRTNVGPQGY-NH2 (disulfide 2-7 (inferred); ends not checked) [SEQ ID NO: 386], in the test with hAM1R, the “hAM1R EC50 (cAMP)” value amounted to 7.35 nM. Further, in the test with hAMY3R, the “hAMY3R EC50 (cAMP)” value came to 0.039 nM.
Turning to KCNFATCTVQRLAHQIYQFTDKDKDNVAPRTKVGSNGY [SEQ ID NO: 361], the “hAM1R EC50 (cAMP)” value in the test with hAM1R was found to be 0.913 nM. The “hAMY3R EC50 (cAMP)” value in the test with hAMY3R stood at 0.006 nM.
In the same order, the values of {C20 diacid-γGlu}-GCRFGTCTVQRLAHFLYQFTDKDKDNVAPRTKVGPQGY-NH2 (disulfide 2-7 (inferred); ends not checked) [SEQ ID NO: 392] are 5.03 nM and 0.113 nM.
In the case of {C20 diacid-γGlu}-KCNFATCTVQRLAHQIYQFTDKDKDNVAPRTKVGSNGY-NH2 (disulfide 2-7 (inferred); ends not checked) [SEQ ID NO: 378], in the test with hAM1R, the “hAM1R EC50 (cAMP)” value was found to be 0.893 nM. In addition, in the test with hAMY3R, the “hAMY3R EC50 (cAMP)” value is 0.027 nM.
In the case of {C20 diacid-γGlu}-KCNTATCTVARLAHQIYQFTDKDKDNVAPPTNVGSNG[Hyp]-NH2 (disulfide 2-7 (inferred); ends not checked) [SEQ ID NO: 37], the “hAM1R EC50 (cAMP)” value with hAM1R was above 5000 nM. Further, the “hAMY3R EC50 (cAMP)” value in the test with hAMY3R turned out to be 0.01 nM.
For the molecule KCNFATCATQRLANFLVQFTDKDKDNVAPRSKIGPQGY [SEQ ID NO: 363], in the test with hAM1R, the “hAM1R EC50 (cAMP)” value is 1.77 nM. In addition, the “hAMY3R EC50 (cAMP)” value in the test with hAMY3R is 0.01 nM.
Taken in the same sequence, the figures for {C20 diacid-γGlu}-KCNTATCTVNRLAHQIYQFTDKDKDNVAPPTNVGSNG[Hyp]-NH2 (disulfide 2-7 (inferred); ends not checked) [SEQ ID NO: 38] were above 5000 nM and 0.01 nM.
On to {C20 diacid-γGlu}-GCRFGTCTVQRLAHFLYQFTDKDKDNVAPRTKIGPQGY-NH2 (disulfide 2-7 (inferred); ends not checked) [SEQ ID NO: 390], for which the “hAM1R EC50 (cAMP)” value with hAM1R came to 0.889 nM. In the test with hAMY3R, the “hAMY3R EC50 (cAMP)” value was determined as 0.048 nM.
